Test results taken from patent EP0138995B1, “REGULATION OF ENZYMES WHICH UTILIZE TETRAHYDROBIOPTERIN OR TETRAHYDROFOLATE COFACTORS WITH 6, 6-DISUBSTITUTED-TETRAHYDROPTERIDINES” (South Alabama Medical Science Foundation, priority 1983, dated 1984).

Legend:
[1] = substrate: CC1(C)CNC2=NC(N)=NC(=O)C2=N1; test: Quinoid dihydropterin as substrate for dihydropteridine reductase (beef liver); type: biochemical
Description: Substrate Properties of Quinoid-6,6-dimethyldihydropterin for Dihydropteridine Reductase: 6,6-Dimethyltetrahydropterin was oxidized by three different procedures to produce q-6,6-Me₂PH₂ to be tested as a substrate for dihydropteridine reductase. • (i) Chemical synthesis. […] The q-6,6-Me₂PH₂ was dissolved in 0.1 M Tris·HCl, pH 7.4 immediately before use to make a 10 mM stock solution, which was kept on ice. To test for substrate activity a small volume (<50 µl) was added to a cuvette containing 0.1 M Tris·HCl, pH 7.4, which had been temperature equilibrated to 27°, and the absorbance at 340 nm was measured. • (ii) Oxidation by peroxidase and H₂O₂. Peroxidase (6 units/ml final volume) was temperature equilibrated in 0.1 M Tris·HCl, pH 7.4, at 27° for 5 minutes. H₂O₂ (1.2 mM final concentration) was then added, followed by 6,6-Me₂PH₄. Conversion to q-6,6-Me₂PH₂, monitored at 340 nm, was complete within a few seconds. • (iii) Generation by phenylalanine hydroxylase: Phenylalanine hydroxylase (0.6 units/ml), catalase (2500 units/ml), and phenylalanine (3 mM final concentration) were temperature equilibrated at 27° in 0.1 M Tris·HCl, pH 7.4. At 5 minutes, 6,6-Me₂PH₄ was introduced and monitored at 340 nm. Conversion of 6,6-Me₂PH₄ to quinoid dihydropterin was complete in 1-7 minutes, depending on the concentration. To each of the above solutions containing q-6,6-Me₂PH₂, NADH (final concentration 0.1 mM) as added, and the background rate recorded for 1 minute. Reaction was then initiated with dihydropteridine reductase (0.01 units/ml). Rates were calculated from the enzyme dependent decrease in O.D. at 340 nm, using an extinction coefficient of 9.8 for the chemically synthesized substrate and 6.2 for the peroxidase- and phenylalanine-hydroxylase-containing reactions in which the pterin is maintained in the quinoid form. Due to the high concentrations of q-6,6-Me₂PH₂ required to obtain an accurate Km, cuvettes of 0.5 cm light path were used.

[2] = substrate: CC1(c2ccccc2)CNC2=NC(N)=NC(=O)C2=N1; test: as above; type: biochemical; details: other: substrate produced by Peroxidase + H2O2; pH 7.4; 27.0 °C
[3] = substrate: CC1=Nc2c(O)nc(N)nc2NC1; test: as above; type: biochemical; details: other: substrate produced by Peroxidase + H2O2; pH 7.4; 27.0 °C
[4] = substrate: CC1(C)CNc2nc(N)[nH]c(=O)c2N1; test: Phenylalanine hydroxylase cofactor assay (cofactor consumption and tyrosine formation); type: biochemical, Rat; details: other: 1 mM phenylalanine, atmospheric oxygen, 0.1 M Tris·HCl, pH 7.4, 27°C
Description: (§1) The 6,6-dimethyl substituted tetrahydropterin was tested for cofactor activity in a standard phenylalanine hydroxylase assay in which both cofactor consumption and tyrosine formation were monitored. […] An apparent Michaelis constant was determined at 1 mM phenylalanine and atmospheric oxygen with concentrations of 6,6-Me₂PH₄ ranging from 0.02-0.3 mM. The effect of a second methyl at the 6-position slightly increases the affinity for phenylalanine hydroxylase, since the apparent Km was two-thirds to three-quarters that of 6-methyl and 6,7-dimethyltetrahydropterin (Table IV). […] The maximum velocity of the reaction with 6,6-Me₂PH₄ is similar to that with the 6,7-dimethyl compound and about 6 times slower than with the natural cofactor (Table IV).

[5] = substrate: CC1CNc2nc(N)[nH]c(=O)c2N1; test: as above; type: biochemical, Rat; details: other: 1 mM phenylalanine, atmospheric oxygen, 0.1 M Tris·HCl, pH 7.4, 27°C
Description: as §1

[6] = substrate: CC1(C)CNC2=NC(N)=NC(=O)C2=N1; test: Quinoid dihydropterin as substrate for dihydropteridine reductase (sheep liver); type: biochemical
Description: The quinoid was generated from 6,6-Me₂PH₄, as outlined previously. […] Peroxidase (6 units/ml final volume) was temperature equilibrated in 0.1 M Tris·HCl, pH 7.4, at 27° for 5 minutes. H₂O₂ (1.2 mM final concentration) was then added, followed by 6,6-Me₂PH₄. Conversion to q-6,6-Me₂PH₂, monitored at 340 nm, was complete within a few seconds. • (iii) Generation by phenylalanine hydroxylase: […] At 5 minutes, 6,6-Me₂PH₄ was introduced and monitored at 340 nm. Conversion of 6,6-Me₂PH₄ to quinoid dihydropterin was complete in 1-7 minutes, depending on the concentration. […] Reaction was then initiated with dihydropteridine reductase (0.01 units/ml). Rates were calculated from the enzyme dependent decrease in O.D. at 340 nm, using an extinction coefficient of 9.8 for the chemically synthesized substrate and 6.2 for the peroxidase- and phenylalanine-hydroxylase-containing reactions in which the pterin is maintained in the quinoid form. […] This Km was obtained regardless of the method of generation of the quinoid dihydropterin. The Vmax's were also the same for the dihydropteridine reductase catalyzed reduction of quinoid generated by any of the three methods (Table VI). Thus, the quinoid products of each procedure appear to behave equally.

[7] = other: substrate produced by Bromine oxidation, 0.1 M Tris·HCl, pH 7.4, 27°C
[8] = other: substrate produced by Phe hydroxylase + phe, pH 7.4, 27.0 °C

B1: Beef Liver Dihydropteridine Reductase (Bos taurus) (protein)
chain: MAAAAGEARRVLVYGGRGALGSRCVQAFRARNWWVASIDVQENEEASANVVVKMTDSFTEQADQVTAEVGKLLGTEKVDAILCVAGGWAGGNAKSKSLFKNCDLMWKQSVWTSTISSHLATKHLKEGGLLTLAGARAALDGTPGMIGYGMAKAAVHQLCQSLAGKSSGLPPGAAAVALLPVTLDTPVNRKSMPEADFSSWTPLEFLVETFHDWITEKNRPSSGSLIQVVTTEGKTELTAASP
notes: from tissue; host or cells: beef liver
Km [1, 7]: 0.4 mM | Km ([1]; other: substrate produced by Peroxidase + H2O2, pH 7.4, 27.0 °C): 0.4 mM | Km [1, 8]: 0.4 mM | Km [2]: 0.07 mM | Km [3]: 0.03 mM

B2: Rat Liver Phenylalanine Hydroxylase (Rattus norvegicus) (protein)
chain: MAAVVLENGVLSRKLSDFGQETSYIEDNSNQNGAISLIFSLKEEVGALAKVLRLFEENDINLTHIESRPSRLNKDEYEFFTYLDKRTKPVLGSIIKSLRNDIGATVHELSRDKEKNTVPWFPRTIQELDRFANQILSYGAELDADHPGFKDPVYRARRKQFADIAYNYRHGQPIPRVEYTEEEKQTWGTVFRTLKALYKTHACYEHNHIFPLLEKYCGFREDNIPQLEDVSQFLQTCTGFRLRPVAGLLSSRDFLGGLAFRVFHCTQYIRHGSKPMYTPEPDICHELLGHVPLFSDRSFAQFSQEIGLASLGAPDEYIEKLATIYWFTVEFGLCKEGDSIKAYGAGLLSSFGELQYCLSDKPKLLPLELEKTACQEYSVTEFQPLYYVAESFSDAKEKVRTFAATIPRPFSVRYDPYTQRVEVLDNTQQLKILADSINSEVGILCNALQKIKS
notes: Cofactor for Rat Liver Phenylalanine Hydroxylase; from tissue; host or cells: rat liver
Km [4]: 0.066 ± 0.01 mM | Km [5]: 0.1 ± 0.02 mM

B3: Sheep Liver Dihydropteridine Reductase (Ovis aries) (protein)
chain: WVASIDVQENEEASANVVVKMTDSFTEQADQVTAEVGELLGTEKVDAILCVAGGWAGGNAKSKSLFKNCDLMWKQSVWTSTISSHLATKHLKEGGLLTLAGARAALDGTPGMIGYGMAKAAVHQLCRSLAGKNSGLPPGAAAVALLPVTLDTPVNRKSMPEADFSSWTPLEFLVETFHDWITEKNRPSSGSLIQVVTTEGKTELTTASL
Km [6, 7]: 0.4 mM | Km [6, 8]: 0.4 mM
